Source: US20200317768A1 (published 2020)

Columns and labels:
Assay in all cases: SPR (Biacore), antibody captured, FcgR analyte
[1] = biological target: T1, cynomolgus monkey FcγRIIa1 extracellular domain, C-terminal His-tag (cynomolgus monkey)
T1 construct: also called cyno FcγRIIa1; cynoFcgRIIa1
T1 chain: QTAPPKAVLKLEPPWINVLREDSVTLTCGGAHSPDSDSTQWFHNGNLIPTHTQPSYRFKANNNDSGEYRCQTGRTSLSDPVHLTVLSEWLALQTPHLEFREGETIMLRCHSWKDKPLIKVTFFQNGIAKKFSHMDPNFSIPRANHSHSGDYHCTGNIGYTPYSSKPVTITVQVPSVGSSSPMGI
Experimental: (§1) The kinetic analysis of interactions between these antibodies and FcγR was carried out using BIACORE® T200 or BIACORE® 4000 (GE Healthcare). HBS-EP+ (GE Healthcare) was used as the running buffer, and the measurement temperature was set to 25° C. A chip produced by immobilizing Protein A. Protein A/G or mouse anti-human IgG kappa light chain (BD Biosciences) onto a Series S Sensor Chip CM4 or CM5 (GE Healthcare) by the amine-coupling method was used. […] After the measurement, the antibody captured on the chip was washed off by allowing reaction with 10 mM glycine-HCl, pH1.5 and 25 mM NaOH so that the chip was regenerated and used repeatedly. The sensorgrams obtained as measurement results were analyzed by the 1:1 Langmuir binding model using the BIACORE® Evaluation Software to calculate the binding rate constant ka (L/mol/s) and dissociation rate constant kd (l/s), and the dissociation constant KD (mol/L) was calculated from these values. […] Regarding such interactions, KD values were calculated using the following 1:1 binding model described in BIACORE® T100 Software Handbook BR1006-48 Edition AE.
(§2) The behavior of interacting molecules according to the 1:1 binding model on BIACORE® can be described by Equation 1: Req=C·R max/(KD+C)+RI, wherein, Req is a plot of steady-state binding levels to analyte concentration. C is concentration, RI is bulk refractive index contribution in the sample, and Rmax is analyte binding capacity of the surface. When this equation is rearranged, KD can be expressed as Equation 2: KD=C·Rmax/(Req−RI)−C. KD can be calculated by substituting the values of Rmax, RI, and C into Equation 1 or Equation 2. From the current measurement conditions, RI=0, C=2 μmol/L can be used.

[2] = biological target: T2, human FcγRIIaH extracellular domain, C-terminal His-tag (human, UniProt P12318 34-217)
T2 construct: also called human FcγRIIa (type H); FcgRIIaH
T2 sequence: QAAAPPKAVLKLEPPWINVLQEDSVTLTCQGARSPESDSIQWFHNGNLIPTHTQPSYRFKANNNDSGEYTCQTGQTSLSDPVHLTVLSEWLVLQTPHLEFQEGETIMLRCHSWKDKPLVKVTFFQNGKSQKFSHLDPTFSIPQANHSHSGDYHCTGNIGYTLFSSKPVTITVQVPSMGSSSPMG
Experimental: as §1, §2

[3] = biological target: T3, human FcγRIIaR extracellular domain, C-terminal His-tag (human, UniProt P12318 34-217)
T3 construct: also called human FcγRIIa (type R); FcgRIIaR
T3 chain: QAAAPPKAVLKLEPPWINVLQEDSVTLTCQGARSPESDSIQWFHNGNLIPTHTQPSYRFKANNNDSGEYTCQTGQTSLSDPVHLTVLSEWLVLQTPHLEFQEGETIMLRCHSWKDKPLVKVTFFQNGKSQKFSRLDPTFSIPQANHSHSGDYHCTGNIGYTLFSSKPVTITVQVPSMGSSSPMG
Experimental: as §1, §2

[4] = biological target: T4, human FcγRIIb extracellular domain, C-terminal His-tag (human, UniProt P31994 43-217)
T4 construct: also called human FcgRIIb; FcgRIIb
T4 sequence: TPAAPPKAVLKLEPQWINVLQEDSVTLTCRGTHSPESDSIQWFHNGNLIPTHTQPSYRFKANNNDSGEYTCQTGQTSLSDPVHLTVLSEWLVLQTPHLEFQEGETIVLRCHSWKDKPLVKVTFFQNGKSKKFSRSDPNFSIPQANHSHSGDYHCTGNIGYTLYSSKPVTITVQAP
Experimental: as §1, §2

[5] = biological target: T5, cynomolgus monkey FcγRIIa3 extracellular domain, C-terminal His-tag (cynomolgus monkey)
T5 construct: also called cyno FcγRIIa3; cynoFcgRIIa3
T5 chain: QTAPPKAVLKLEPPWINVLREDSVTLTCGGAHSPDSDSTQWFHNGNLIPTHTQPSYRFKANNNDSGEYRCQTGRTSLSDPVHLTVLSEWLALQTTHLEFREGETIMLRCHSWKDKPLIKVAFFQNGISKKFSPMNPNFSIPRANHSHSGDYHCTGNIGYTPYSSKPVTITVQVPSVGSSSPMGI
Experimental: as §1, §2

[6] = biological target: T6, cynomolgus monkey FcγRIIa2 extracellular domain, C-terminal His-tag (cynomolgus monkey)
T6 construct: also called cyno FcγRIIa2; cynoFcgRIIa2
T6 chain: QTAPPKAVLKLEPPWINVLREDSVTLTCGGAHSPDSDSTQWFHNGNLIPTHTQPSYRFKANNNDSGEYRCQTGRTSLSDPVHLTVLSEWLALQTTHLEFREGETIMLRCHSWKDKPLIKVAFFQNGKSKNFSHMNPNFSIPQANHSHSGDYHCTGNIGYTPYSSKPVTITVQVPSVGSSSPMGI
Experimental: as §1, §2

[7] = biological target: T7, human FcγRIIIaV extracellular domain, C-terminal His-tag (human, UniProt P08637 17-208)
T7 construct: also called human FcgRIIIaV; FcgRIIIaV
Experimental: as §1, §2

[8] = biological target: T8, cynomolgus monkey FcγRIIb extracellular domain, C-terminal His-tag (cynomolgus monkey)
T8 construct: also called cyno FcγRIIb; cynoFcγRIIb
T8 chain: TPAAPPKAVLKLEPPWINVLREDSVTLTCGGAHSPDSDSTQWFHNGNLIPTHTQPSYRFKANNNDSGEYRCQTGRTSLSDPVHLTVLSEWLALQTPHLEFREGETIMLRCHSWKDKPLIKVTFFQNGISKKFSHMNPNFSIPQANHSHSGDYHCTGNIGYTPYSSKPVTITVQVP
Experimental: as §1, §2

[9] = biological target: T9, cynomolgus monkey FcγRIIIaS extracellular domain, C-terminal His-tag (cynomolgus monkey, UniProt Q8SPW2 21-206 at identity 1.00))
T9 construct: also called cyno FcγRIIIaS; cynoFcγRIIIaS
T9 chain: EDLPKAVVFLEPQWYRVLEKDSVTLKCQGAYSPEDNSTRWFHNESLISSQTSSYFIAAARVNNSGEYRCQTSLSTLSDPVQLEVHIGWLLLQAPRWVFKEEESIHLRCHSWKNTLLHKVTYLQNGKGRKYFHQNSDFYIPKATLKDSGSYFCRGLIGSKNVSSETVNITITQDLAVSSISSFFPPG
Experimental: as §1, §2

T7 sequence (P08637 17-208 F176V): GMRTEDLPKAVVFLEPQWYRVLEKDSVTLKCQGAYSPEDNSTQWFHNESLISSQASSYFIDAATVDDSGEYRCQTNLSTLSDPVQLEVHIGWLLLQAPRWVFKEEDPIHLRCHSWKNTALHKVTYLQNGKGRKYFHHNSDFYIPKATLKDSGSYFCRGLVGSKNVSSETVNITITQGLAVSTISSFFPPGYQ

| Binder | Kd [1] [nM] | Kd [2] [nM] | Kd [3] [nM] | Kd [4] [nM] | Kd [5] [nM] | Kd [6] [nM] | Kd [7] [nM] | Kd [8] [nM] | Kd [9] [nM] |
| --- | --- | --- | --- | --- | --- | --- | --- | --- | --- |
| M103205H795-MY206/M103202L889-SK1 (antibody, human IgG1, kappa, Substitutions introduced into M103205H795-SG1; expressed with M103202L889-SK1 as light chain) heavy: QVTLKESGPVLVKPTETLTLTCTVSGIDLSHDDISWVRQAPGKGLEWVGIISYAGSTYYASWAKGRLTISKDTSKNQVVLTMTNMDPVDTATYYCARGVPAYSHGGDLWGQGTLVTVSSASTKGPSVFPLAPSSKSTSGGTAALGCLVKDYFPEPVTVSWNSGALTSGVHTFPAVLQSSGLYSLSSVVTVPSSSLGTQTYICNVNHKPSNTKVDKKVEPKSCDKTHTCPPCPAPELLNGPVVFLFPPKPKDTLMISRTPEVTCVVVDVSDEDPEVKFNWYVDGVEVHNAKTKPREELYNSTYRVVSVLTVLHQDWLNGKEYKCKVSNKALPKPIEKTISKAKGQPREPQVYTLPPSREEMTKNQVSLTCLVKGFYPSDIAVEWESNGQPENNYKTTPPVLDSDGSFFLYSKLTVDKSRWQQGNVFSCSVMHEALHNHYTQKSLSLSP light: DIVMTQSPATLSLSPGERATLSCTSSQSVYHANWLSWFQQKPGQPPKLLIYWASTLAYGVPSRFSGSGSGTDFTLTISSLQPEDAATYYCAGGYGGGRYAFGQGTKVEIKRTVAAPSVFIFPPSDEQLKSGTASVVCLLNNFYPREAKVQWKVDNALQSGNSQESVTEQDSKDSTYSLSSTLTLSKADYEKHKVYACEVTHQGLSSPVTKSFNRGEC | 520 | 1000 | 1400 | 800 | 5000 | 790 | 8200 | 450 | 5300 |
| M103205H795-MY207/M103202L889-SK1 (antibody, human IgG1, kappa, Substitutions introduced into M103205H795-SG1; expressed with M103202L889-SK1 as light chain) heavy: not shown light: DIVMTQSPATLSLSPGERATLSCTSSQSVYHANWLSWFQQKPGQPPKLLIYWASTLAYGVPSRFSGSGSGTDFTLTISSLQPEDAATYYCAGGYGGGRYAFGQGTKVEIKRTVAAPSVFIFPPSDEQLKSGTASVVCLLNNFYPREAKVQWKVDNALQSGNSQESVTEQDSKDSTYSLSSTLTLSKADYEKHKVYACEVTHQGLSSPVTKSFNRGEC | 1500 | 13000 | 2800 | 1600 | 69000 | 1400 | 8000 | 820 | 4100 |
| M103205H795-MY208/M103202L889-SK1 (antibody, human IgG1, kappa, Substitutions introduced into M103205H795-SG1; expressed with M103202L889-SK1 as light chain) heavy: QVTLKESGPVLVKPTETLTLTCTVSGIDLSHDDISWVRQAPGKGLEWVGIISYAGSTYYASWAKGRLTISKDTSKNQVVLTMTNMDPVDTATYYCARGVPAYSHGGDLWGQGTLVTVSSASTKGPSVFPLAPSSKSTSGGTAALGCLVKDYFPEPVTVSWNSGALTSGVHTFPAVLQSSGLYSLSSVVTVPSSSLGTQTYICNVNHKPSNTKVDKKVEPKSCDKTHTCPPCPAPELLNGPSVFLFPPKPKDTLMISRTPEVTCVVVDVSDEDPEVKFNWYVDGVEVHNAKTKPREELYNSTYRVVSVLTVLHQDWLNGKEYKCKVSNKALPAPIEKTISKAKGQPREPQVYTLPPSREEMTKNQVSLTCLVKGFYPSDIAVEWESNGQPENNYKTTPPVLDSDGSFFLYSKLTVDKSRWQQGNVFSCSVMHEALHNHYTQKSLSLSP light: DIVMTQSPATLSLSPGERATLSCTSSQSVYHANWLSWFQQKPGQPPKLLIYWASTLAYGVPSRFSGSGSGTDFTLTISSLQPEDAATYYCAGGYGGGRYAFGQGTKVEIKRTVAAPSVFIFPPSDEQLKSGTASVVCLLNNFYPREAKVQWKVDNALQSGNSQESVTEQDSKDSTYSLSSTLTLSKADYEKHKVYACEVTHQGLSSPVTKSFNRGEC | 1200 | 530 | 21000 | 12000 | 5700 | 1500 | 10000 | 640 | 2800 |
| M103205H795-MY209/M103202L889-SK1 (antibody, human IgG1, kappa, Substitutions introduced into M103205H795-SG1; expressed with M103202L889-SK1 as light chain) heavy: QVTLKESGPVLVKPTETLTLTCTVSGIDLSHDDISWVRQAPGKGLEWVGIISYAGSTYYASWAKGRLTISKDTSKNQVVLTMTNMDPVDTATYYCARGVPAYSHGGDLWGQGTLVTVSSASTKGPSVFPLAPSSKSTSGGTAALGCLVKDYFPEPVTVSWNSGALTSGVHTFPAVLQSSGLYSLSSVVTVPSSSLGTQTYICNVNHKPSNTKVDKKVEPKSCDKTHTCPPCPAPELLNGPSVFLFPPKPKDTLMISRTPEVTCVVVDVSDEDPEVKFNWYVDGVEVHNAKTKPREELYNSTYRVVSVLTVLHQDWLNGKEYKCKVSNTALPKPIEKTISKAKGQPREPQVYTLPPSREEMTKNQVSLTCLVKGFYPSDIAVEWESNGQPENNYKTTPPVLDSDGSFFLYSKLTVDKSRWQQGNVFSCSVMHEALHNHYTQKSLSLSP light: DIVMTQSPATLSLSPGERATLSCTSSQSVYHANWLSWFQQKPGQPPKLLIYWASTLAYGVPSRFSGSGSGTDFTLTISSLQPEDAATYYCAGGYGGGRYAFGQGTKVEIKRTVAAPSVFIFPPSDEQLKSGTASVVCLLNNFYPREAKVQWKVDNALQSGNSQESVTEQDSKDSTYSLSSTLTLSKADYEKHKVYACEVTHQGLSSPVTKSFNRGEC | 830 | 570 | 680 | 500 | 19000 | 690 | 14000 | 190 | 2200 |
